B2: OX40-CRD-Avi-his (receptor)
chain: LHCVGDTYPSNDRCCHECRPGNGMVSRCSRSQNTVCRPCGPGFYNDVVSSKPCKPCTWCNLRSGSERKQLCTATQDTVCRCRAGTQPLDSYKPGVDCAPCPPGHFSPGDNQACKPWTNCTLAGKHTLQPASNSSDAICEDRDGLNDIFEAQKIEWHEHHHHHH
notes: limits of the construct not described

Experiments:
[1] = target: T1, recombinant human OX40-his protein (human, UniProt P43489 29-214); experiment: direct ELISA on coated OX40-his
T1 construct: Secreted via the native signal peptide, which lies within residues 1-214; also called Human OX40R-His; histidine tagged human OX40 receptor extracellular domain
T1 sequence: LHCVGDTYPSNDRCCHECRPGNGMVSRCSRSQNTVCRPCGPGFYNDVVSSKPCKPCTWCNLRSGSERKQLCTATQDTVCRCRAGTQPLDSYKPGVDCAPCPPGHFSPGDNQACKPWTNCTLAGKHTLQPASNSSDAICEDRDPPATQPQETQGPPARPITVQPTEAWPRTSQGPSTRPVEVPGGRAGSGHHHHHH
Method: Plates were incubated overnight at 4° C. and were then blocked with PBS 2% BSA (Bovine Serum Albumine, PAA Laboratories, Pasching, Austria) at room temperature (RT) for one hour. […] Absorbance was then read at 450 nm by a microplate reader (Biotek, USA; distributor: WITTEC AG, Littau, Switzerland).

[2] = target: pab1949 scFv fused in C-terminus (Fc fragment after digestion); experiment: SPR, Fc-scFv fragment captured by anti-human IgG Fc, OX40-CRD-Avi-his injected
Method: The antibody/protease mixture was incubated over night at 37° C. […] After each binding event, the surface was regenerated with 10 μl of MgCl2 (3M) buffer. Experimental data were processed using a 1:1 Langmuir model with local Rmax. The dissociation time was about 7 min.
(§1) Dilution series of hsOX40_CRD_Avi_His (SEQ ID NO: 159) were then injected.

human OX40-Fc = target: T2, human OX40-Fc (human); experiment: ELISA on coated human OX40-Fc, antibody 10 µg/ml
T2 construct: also called recombinant human OX40-Fc; human OX40 (HHHH)
Method: (§2) These constructs were expressed in HEK293-EBNA1 cells and purified using protein A. Then, human and rat OX40-Fc were tested in ELISA and Biacore to determine antibody cross-reactivity. For the ELISA, 96 well-microtiter plates (Costar USA, distributor VWR AG, Nyon, Switzerland) were coated with 100 μl of recombinant human or rat OX40-Fc at 2 μg/ml in PBS. Plates were incubated overnight at 4° C. and were then blocked with PBS 2% BSA (Bovine Serum Albumine, PAA Laboratories, Pasching, Austria) at room temperature (RT) for one hour. The blocking solution was removed and the purified antibodies were added at 10 μg/ml in PBS 2% BSA. The plates were incubated at RT for 1 hour, then washed 5 times with PBS 0.01% Tween-20 (Sigma-Aldrich Chemie GmbH, Buchs, Switzerland). […] Plates were incubated for 1 hour at RT, washed 5 times with PBS 0.01% Tween-20 and the TMB substrate (Bio-rad Laboratories AG, Reinach, Switzerland) was added to the plates and the reaction stopped after 5 minutes by adding H₂SO₄. Absorbance was then read at 450 nm by a microplate reader (Biotek, USA; distributor: WITTEC AG, Littau, Switzerland). Biacore experiments were specifically conducted with Hexa-hzG3V9 and Hexa-hz1D10v1 which are dAb-Fc fusion proteins. […] Binding of human and cyno OX40-Fc molecules was determined by successively injecting these proteins on the 4 flow-paths (flow-path 1 and 3 being used as references) at a concentration of 200 nM and a flow rate of 30 uL/min for 240 seconds. Regeneration between the two injections was done using 3M MgCl2, at 30 uL/min for 60 seconds. Using these two approaches, human/rat OX40 binding was assessed (table 16).

rat OX40-Fc = rat OX40-Fc (rat); experiment: ELISA on coated rat OX40-Fc
Method: as §2

[3] = target: T3, recombinant GITR molecule (R&D) (UniProt Q9Y5U5 26-161); experiment: direct ELISA on coated recombinant GITR, detection streptavidin-HRP, absorbance 450 nm [panel GITR]
T3 sequence (looked up): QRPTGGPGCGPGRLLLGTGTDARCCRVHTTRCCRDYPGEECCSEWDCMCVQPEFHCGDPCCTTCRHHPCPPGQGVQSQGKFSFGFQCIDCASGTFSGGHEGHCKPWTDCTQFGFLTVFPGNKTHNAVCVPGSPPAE
Method: (§3) FIG. 13. A dose-response of various antibodies was incubated on various receptors, members of Tumor Necrosis Factor Receptor family, then detected with Streptavidin coupled with Horseradish Peroxidase enzyme. […] Each data point is the mean of duplicate values except for control curves that were performed in simplicate.
(§4) The experiment was conducted following the same protocol than previously described. […] These molecules were all coated at 2 μg/ml in PBS overnight at 4° C.

[4] = target: recombinant CD40 molecule (R&D) (UniProt P25942 21-193); experiment: direct ELISA on coated recombinant CD40, detection streptavidin-HRP, absorbance 450 nm [panel CD40]
Method: as §3, §4

[5] = target: T4, recombinant DR3 molecule (R&D) (UniProt Q93038 25-199, limits assumed); experiment: direct ELISA on coated recombinant DR3, detection streptavidin-HRP, absorbance 450 nm [panel DR3]
T4 sequence (looked up): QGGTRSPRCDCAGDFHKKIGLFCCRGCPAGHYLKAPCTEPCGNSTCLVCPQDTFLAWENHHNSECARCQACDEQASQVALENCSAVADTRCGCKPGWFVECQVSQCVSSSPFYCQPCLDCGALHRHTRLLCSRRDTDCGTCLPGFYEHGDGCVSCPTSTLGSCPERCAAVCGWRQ
Method: as §3, §4

[6] = target: T5, recombinant DR6 molecule (R&D) (UniProt O75509 42-349, limits assumed); experiment: direct ELISA on coated recombinant DR6, detection streptavidin-HRP, absorbance 450 nm [panel DR6]
T5 sequence (looked up): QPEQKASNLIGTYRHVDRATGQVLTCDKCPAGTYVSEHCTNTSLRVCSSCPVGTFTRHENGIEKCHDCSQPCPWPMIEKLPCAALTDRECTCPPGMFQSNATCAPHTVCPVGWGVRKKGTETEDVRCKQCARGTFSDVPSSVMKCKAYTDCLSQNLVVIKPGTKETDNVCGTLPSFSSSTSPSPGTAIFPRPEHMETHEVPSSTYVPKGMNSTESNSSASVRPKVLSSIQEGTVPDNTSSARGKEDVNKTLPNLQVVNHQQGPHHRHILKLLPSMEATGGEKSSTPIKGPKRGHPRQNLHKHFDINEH
Method: as §3, §4

human OX40 on cells [7] = target: T6, human OX40 on cells (human, UniProt P43489 29-277); experiment: flow cytometry on JURKAT-NFkB-OX40 cells, detection anti-human Fc PE, geometric mean of fluorescence intensity
T6 construct: whole, on cells; also called OX40 on HPB-ALL cells
T6 sequence (looked up): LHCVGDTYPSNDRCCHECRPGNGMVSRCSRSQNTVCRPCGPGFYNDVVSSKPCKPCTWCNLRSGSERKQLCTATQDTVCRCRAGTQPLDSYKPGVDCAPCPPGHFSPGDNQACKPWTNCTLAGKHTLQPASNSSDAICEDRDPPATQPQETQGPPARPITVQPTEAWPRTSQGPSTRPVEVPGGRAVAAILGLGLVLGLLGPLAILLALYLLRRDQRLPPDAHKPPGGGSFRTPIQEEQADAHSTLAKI

chiOX40R HHRH-Fc = target: T7, chiOX40R HHRH-Fc (human/rat chimera; human); experiment: SPR, chimera immobilised (3000 RU), fragment injected at 200 nM
T7 construct: also called chiOX40R-Fc HHRH; chiOX40R OX40 HHRH-Fc
Method: A second injection was then performed using HBS-EP buffer for 3 min followed by 5 min of dissociation. Regeneration between the injections was done using glycine pH1.5 buffer for 1 min (FIG. 21 and table 23).

human OX40 on cells [8] = target: T6, human OX40 on cells; experiment: cell-based or functional assay
OX40-CRD-Avi-his = target: B2; experiment: SPR, antibody captured by anti-human IgG Fc, hsOX40_CRD_Avi_His injected
Method: as §1

human OX40 on cells [9] = target: T6, human OX40 on cells; experiment: cell-based or functional assay; remark: listed apart in the source
human OX40 on cells [10] = target: T6, human OX40 on cells; experiment: cell-based or functional assay; remark: listed apart in the source

Sequence of rat OX40-Fc (rat) (chain, as listed by the source limits assumed): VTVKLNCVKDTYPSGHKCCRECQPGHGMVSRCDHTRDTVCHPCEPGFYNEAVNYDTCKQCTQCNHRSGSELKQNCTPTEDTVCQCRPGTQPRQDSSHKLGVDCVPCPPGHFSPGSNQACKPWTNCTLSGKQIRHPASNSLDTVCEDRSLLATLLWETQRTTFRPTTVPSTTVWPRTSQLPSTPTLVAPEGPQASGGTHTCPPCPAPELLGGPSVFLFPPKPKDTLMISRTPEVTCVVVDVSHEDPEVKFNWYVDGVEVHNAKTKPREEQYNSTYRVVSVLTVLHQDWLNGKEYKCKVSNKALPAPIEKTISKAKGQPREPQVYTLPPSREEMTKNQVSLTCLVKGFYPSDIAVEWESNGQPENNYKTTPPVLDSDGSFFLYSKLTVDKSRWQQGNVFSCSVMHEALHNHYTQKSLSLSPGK
Sequence of recombinant CD40 molecule (R&D) (P25942 21-193 limits assumed): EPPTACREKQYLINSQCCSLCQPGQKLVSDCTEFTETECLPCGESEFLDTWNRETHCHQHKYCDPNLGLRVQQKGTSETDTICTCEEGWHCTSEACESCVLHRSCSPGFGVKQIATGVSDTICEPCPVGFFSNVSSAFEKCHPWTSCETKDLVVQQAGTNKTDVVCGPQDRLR
T7 sequence (chain, as listed by the source): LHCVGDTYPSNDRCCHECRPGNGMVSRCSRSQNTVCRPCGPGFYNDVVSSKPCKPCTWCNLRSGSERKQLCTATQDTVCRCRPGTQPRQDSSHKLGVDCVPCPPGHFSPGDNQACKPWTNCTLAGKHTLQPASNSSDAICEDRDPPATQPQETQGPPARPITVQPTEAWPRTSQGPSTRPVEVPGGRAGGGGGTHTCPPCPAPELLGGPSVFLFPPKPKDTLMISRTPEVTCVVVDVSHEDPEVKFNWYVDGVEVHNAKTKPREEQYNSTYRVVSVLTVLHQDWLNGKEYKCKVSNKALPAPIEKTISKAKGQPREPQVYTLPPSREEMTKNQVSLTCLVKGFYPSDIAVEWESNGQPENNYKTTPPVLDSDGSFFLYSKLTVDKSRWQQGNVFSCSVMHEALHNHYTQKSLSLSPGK

B1: mouse 2H6 antibody (hybridoma 2H6) (antibody, V domains shown)
VH: DVQLQESGPGLVKPSQSLSLTCTVTGYSITSDYAWNWIRQFPGNKLEWMGYISYSGSTAYNPSLKSRISITRDTSKNQFFLQLNSVTTEDTATYYCARGPYNYLAYWGQGTLVTVSS
VL: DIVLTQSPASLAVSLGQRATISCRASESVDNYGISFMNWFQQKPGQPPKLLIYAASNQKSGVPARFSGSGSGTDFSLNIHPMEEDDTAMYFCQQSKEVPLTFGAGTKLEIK
notes: also called mouse antibody 2H6
B1: binds [1].

A Kd [2] of 0.46 µM was found for B2 in this work.

B3: 2H6 IgG1 (antibody)
heavy: not shown
light: DIQLTQSPSSLSASVGDRVTITCRASESVDNYGISFMNWFQQKPGKAPKLLIYAASNQKSGVPSRFSGSGSGTDFTLTISSLQPEDFATYFCQQSKEVPLTFGQGTKVEIKRTVAAPSVFIFPPSDEQLKSGTASVVCLLNNFYPREAKVQWKVDNALQSGNSQESVTEQDSKDSTYSLSSTLTLSKADYEKHKVYACEVTHQGLSSPVTKSFNRGEC
B3: binds (human OX40-Fc); no binding (tested: 10 µg/ml) (rat OX40-Fc); no binding (tested: 10 µg/ml) [3]. B3: no binding (tested: 10 µg/ml) [4]; no binding (tested: 10 µg/ml) [5]; no binding (tested: 10 µg/ml) [6]. The “EC50 (read off the curve)” value (human OX40 on cells [7]) was about 0.2 mg/L.

B4: Fc-7H11 scFv/2H6 Fab (other)
heavy 1: HTCPPCPAPEAAGGPSVFLFPPKPKDTLMISRTPEVTCVVVDVSHEDPEVQFKWYVDGVEVHNAKTKPREEQYNSTFRVVSVLTVLHQDWLNGKEYKCKVSNKALPAPIEKTISKTKGQPREPAVYTLPPSREEMTKNQVKLVCLVTGFYPSDIAVEWESSGQPENNYYTTPPMLDSDGSFSLVSWLNVDKSRWQQGNIFSCSVMHEALHNRFTQKSLSLSPGGGGGTQVQLVQSGAEVKKPGASVKVSCKASGYTFTRYYMHWVRQAPGQCLEWMGWIYPGEGSTKYAQKFQGRVTMTRDTSISTAYMELSRLRSDDTAVYYCAREYGNYDYWGQGTLVTVSSGGGGSGGGGSGGGGSDIVMTQSPDSLAVSLGERATINCKSSQSLLNSGNQKNYLAWYQQKPGQPPKLLIYGASTRESGVPDRFSGSGSGTDFTLTISSLQAEDVAVYYCQNDHSYPYTFGCGTKLEIL
heavy 2: HTCPPCPAPEAAGGPSVFLFPPKPKDTLMISRTPEVTCVVVDVSHEDPEVKFNWYVDGVEVHNAKTKPREEQYNSTYRVVSVLTVLHQDWLNGKEYKCKVSNKALPAPIEKTISKAKGQPREPEVATFPPSRDELTKNQVTLVCLVTGFYPSDIAVEWESNGQPENNYKTDPPLLESDGSFALSSRLRVDKSRWQQGNVFSCSVMHEALHNHYTQKSLSLSPGGGGGTEVQLVESGGGLVQPGGSLRLSCAVSGYSITSDYAWNWIRQAPGKGLEWMGYISYSGSTAYNPSLKSRITISRDTSKNTFYLQMNSLRAEDTAVYYCARGPYNYLAYWGQGTLVTVSSASTKGPSVFPLAPSSKSTSGGTAALGCLVKDYFPEPVTVSWNSGALTSGVHTFPAVLQSSGLYSLSSVVTVPSSSLGTQTYICNVNHKPSNTKVDKKVEPKSC
light: DIQLTQSPSSLSASVGDRVTITCRASESVDNYGISFMNWFQQKPGKAPKLLIYAASNQKSGVPSRFSGSGSGTDFTLTISSLQPEDFATYFCQQSKEVPLTFGQGTKVEIKRTVAAPSVFIFPPSDEQLKSGTASVVCLLNNFYPREAKVQWKVDNALQSGNSQESVTEQDSKDSTYSLSSTLTLSKADYEKHKVYACEVTHQGLSSPVTKSFNRGEC
notes: N-terminal Fabs removed by digestion; also called Fc-2H6 Fab/7H11 scFv; purified digestion product of Tetra-20
A response units (chiOX40R HHRH-Fc) of 100 RU was found for B4 in this work.

B5: pab1949 IgG1 (antibody, V domains shown)
VH: EVQLVESGGGLVQPGGSLKLSCAASGFTFSGSAMHWVRQASGKCLEWVGRIRSKANSYATAYAASVKGRFTISRDDSKNTAYLQMNSLKTEDTAVYYCTSGIYDSSGYDYWGQGTLVTVSS
VL: not shown
For B5, the binding result (rat OX40-Fc) was “no binding (tested: 10 µg/ml)”, the “% donor responder (>2), SEB assay, IL-2 release” value (human OX40 on cells [8]) was 80% and the “Mean, normalized IL-2 release, SEB assay” value (human OX40 on cells [8]) was 4.74. It also gave a Kd (OX40-CRD-Avi-his) of 0.304 µM.

B6: recombinant human OX40L-Fc protein (Fc fusion, not shown: a dimerising Fc or GST; small tags and cut ends)
chain: QVSHRYPRIQSIKVQFTEYKKEKGFILTSQKEDEIMKVQNNSVIINCDGFYLISLKGYFSQEVNISLHYQKDEEPLFQLKKVRSVNSLMVASLTYKDKVYLNVTTDNTSLDDFHVNGGELILIHQNPGEFCVL
With B6 the “Mean (fold increase proliferation vs control), MLR assay” value (human OX40 on cells [9]) was 1.54 fold, the “donors reaching a 1.2 fold induction of CD4+CD25+ cells compared to SEB only” value (human OX40 on cells [10]) was 67% and the “% donor responder (>2), SEB assay, IL-2 release” value (human OX40 on cells [8]) was 83%. For the same binder, the “Mean, normalized IL-2 release, SEB assay” value (human OX40 on cells [8]) was 4.26.
